Results published in patent US20230059344A1.

Molecular target: h4-1-BB on a genetically engineered Jurkat T cell line (Promega 4-1BB Bioassay) (human) (UniProt Q07011)
Test: cell-based or functional assay
Conditions: scale: relative luciferase

h4-1-BB on a genetically engineered Jurkat T cell line (Promega 4-1BB Bioassay) (human), sequence (Q07011 24-255, change not shown): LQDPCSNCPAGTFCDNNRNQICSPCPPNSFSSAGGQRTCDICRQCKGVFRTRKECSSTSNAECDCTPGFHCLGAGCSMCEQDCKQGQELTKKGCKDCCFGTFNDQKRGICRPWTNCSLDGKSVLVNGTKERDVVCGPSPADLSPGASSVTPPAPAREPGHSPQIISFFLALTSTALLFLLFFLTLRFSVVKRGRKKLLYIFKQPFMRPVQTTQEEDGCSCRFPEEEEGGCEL

## His-tagged h4-1BBL cross-linked with an Fc (from UniProt P41273 71-254) (ligand)
  luciferase expression by Jurkat-h4-1BB cells: 1
